Laboratory results as given in PMC11564547, “An interaction network of inner centriole proteins organised by POC1A-POC1B heterodimer crosslinks ensures centriolar integrity” (Nature Communications, 2024).

B2: POC5-HA-TEV-2xFLAG (wild type POC5 of the POC5-Centrin2 complex from insect cells) (natural protein, human, UniProt Q8NA72 1-575, looked up)
chain: MSSDEEKYSLPVVQNDSSRGSSVSSNLQEEYEELLHYAIVTPNIEPCASQSSHPKGELVPDVRISTIHDILHSQGNNSEVRETAIEVGKGCDFHISSHSKTDESSPVLSPRKPSHPVMDFFSSHLLADSSSPATNSSHTDAHEILVSDFLVSDENLQKMENVLDLWSSGLKTNIISELSKWRLNFIDWHRMEMRKEKEKHAAHLKQLCNQINELKELQKTFEISIGRKDEVISSLSHAIGKQKEKIELMRTFFHWRIGHVRARQDVYEGKLADQYYQRTLLKKVWKVWRSVVQKQWKDVVERACQARAEEVCIQISNDYEAKVAMLSGALENAKAEIQRMQHEKEHFEDSMKKAFMRGVCALNLEAMTIFQNRNDAGIDSTNNKKEEYGPGVQGKEHSAHLDPSAPPMPLPVTSPLLPSPPAAVGGASATAVPSAASMTSTRAASASSVHVPVSALGAGSAATAASEEMYVPRVVTSAQQKAGRTITARITGRCDFASKNRISSSLAIMGVSPPMSSVVVEKHHPVTVQTIPQATAAKYPRTIHPESSTSASRSLGTRSAHTQSLTSVHSIKVVD
notes: POC5, human; cDNA from SinoBiological; No TEV cleavage is described; also called POC5-TEV-2xFLAG; full-length POC5; not shown: 2xFLAG (after a TEV site), C-terminal, kept

How the values were obtained:
[1] = target: the molecule itself; assay: negative stain EM; purified POC5-Centrin2 complexes (co-expressed in insect cells, FLAG affinity and SEC); 3% uranyl acetate; 2D classification and low-resolution 3D reconstruction
[2] = target: the molecule itself; assay: mass photometry; purified POC5-Centrin2 complex (co-expressed in insect cells, FLAG affinity and SEC); 1 µl of 400 nM protein in 19 µl SEC buffer (50 mM Tris pH 7.5, 150 mM NaCl, 1 mM MgCl2); Refeyn TwoMP
[3] = target: B2; assay: as above; details: both partners purified

B1: POC5^Δ153-184-TEV-2xFLAG (of the POC5^Δ153-184-Centrin2 complex from insect cells) (natural protein, human, UniProt Q8NA72 1-575, looked up)
chain: MSSDEEKYSLPVVQNDSSRGSSVSSNLQEEYEELLHYAIVTPNIEPCASQSSHPKGELVPDVRISTIHDILHSQGNNSEVRETAIEVGKGCDFHISSHSKTDESSPVLSPRKPSHPVMDFFSSHLLADSSSPATNSSHTDAHEILVSDFLVSFIDWHRMEMRKEKEKHAAHLKQLCNQINELKELQKTFEISIGRKDEVISSLSHAIGKQKEKIELMRTFFHWRIGHVRARQDVYEGKLADQYYQRTLLKKVWKVWRSVVQKQWKDVVERACQARAEEVCIQISNDYEAKVAMLSGALENAKAEIQRMQHEKEHFEDSMKKAFMRGVCALNLEAMTIFQNRNDAGIDSTNNKKEEYGPGVQGKEHSAHLDPSAPPMPLPVTSPLLPSPPAAVGGASATAVPSAASMTSTRAASASSVHVPVSALGAGSAATAASEEMYVPRVVTSAQQKAGRTITARITGRCDFASKNRISSSLAIMGVSPPMSSVVVEKHHPVTVQTIPQATAAKYPRTIHPESSTSASRSLGTRSAHTQSLTSVHSIKVVD
notes: made with deletion primers from the POC5-TEV-2xFLAG CEN2 construct; source: insect cells (MultiBac baculovirus), co-expressed with Centrin2, purified (anti-FLAG beads, 3xFLAG peptide elution, SEC); not shown: 2xFLAG (after a TEV site), C-terminal, kept
[1]
  stoichiometry N: 2

## B2
[2]
  stoichiometry N: 4

B3: Centrin2 (natural protein, human, UniProt P41208 1-172, looked up)
chain: MASNFKKANMASSSQRKRMSPKPELTEEQKQEIREAFDLFDADGTGTIDVKELKVAMRALGFEPKKEEIKKMISEIDKEGTGKMNFGDFLTVMTQKMSEKDTKEEILKAFKLFDDDETGKISFKNLKRVAKELGENLTDEELQEMIDEADRDGDGEVSEQEFLRIMKKTSLY
notes: Centrin2 (CETN2), human; amplified and cloned into pACEBac1; also called CETN2; CEN2; source: Sf21 insect cells (MultiBac baculovirus), co-expressed with POC5-TEV-2xFLAG, co-purified (anti-FLAG beads, SEC)
[3]
  stoichiometry N: ~6 Centrin2 molecules per POC5 tetramer
